Source: paper PMC3765907, “S-Nitrosylation of parkin as a novel regulator of p53-mediated neuronal cell death in sporadic Parkinson’s disease”

Molecular target: parkin (wild-type, GST-tagged) (UniProt O60260 1-465)
Assay: EMSA; parkin 100 nM to 1 uM, 0.1 nM probe; shift increases with parkin; 1x binding buffer (Panomics), room temperature, 20 min; 0.1 nM biotin probe, 1 uM parkin (100 nM-1 uM titration); 6% PAGE in 0.5x TBE pH 8.3; salt not stated
Conditions: protein: recombinant; tags: GST; label: 5' biotin; blunt

Chain of parkin (wild-type, GST-tagged) (O60260 whole entry): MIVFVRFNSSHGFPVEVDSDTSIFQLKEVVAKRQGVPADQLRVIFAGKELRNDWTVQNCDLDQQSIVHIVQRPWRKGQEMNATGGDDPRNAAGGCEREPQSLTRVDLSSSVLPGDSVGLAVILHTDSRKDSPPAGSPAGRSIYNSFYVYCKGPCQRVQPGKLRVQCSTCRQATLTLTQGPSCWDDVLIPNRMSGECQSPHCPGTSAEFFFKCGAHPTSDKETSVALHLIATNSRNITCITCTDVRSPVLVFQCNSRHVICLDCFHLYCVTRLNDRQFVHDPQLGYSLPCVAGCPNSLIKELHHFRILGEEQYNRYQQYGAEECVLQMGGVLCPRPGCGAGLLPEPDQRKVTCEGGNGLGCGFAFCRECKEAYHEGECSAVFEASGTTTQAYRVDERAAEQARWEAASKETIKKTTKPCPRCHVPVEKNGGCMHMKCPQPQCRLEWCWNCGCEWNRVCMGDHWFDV

B1: Pp53 (human p53 promoter probe) (dsDNA)
DNA 1: GGCACCAGGTCGGCGAGAATCCTGACTCTGCACCCTCCTCCCCAACTCCATTTCCTTTGCTTCCTCCGGC
DNA 2: GCCGGAGGAAGCAAAGGAAATGGAGTTGGGGAGGAGGGTGCAGAGTCAGGATTCTCGCCGACCTGGTGCC
B1: binds.
